Patent US20170298096A1 (CANIMGUIDE THERAPEUTICS, published 2017)
No end group written: not given here.

T1: His-tagged P3028 (human, also: His-tag, terminus and sequence not given here)
T1 construct: used in solution in the PEPSCAN (rampo) ELISA; also called PGE73; His-tag-P3028; not shown: His tag
T1 peptide: VFDEFKPLVEEPQNLIK

T2: His-tagged P3028 peptide (PGE73) (human)
T2 construct: albumin-derived peptide, in solution at 0.5 ug/mL; not shown: His-tag
T2 peptide: VFDEFKPLVEEPQNLIK


Columns and labels:
[1] = target: T1, His-tagged P3028; assay: PEPSCAN ELISA (rampo)
Procedure: (§1) After washing, the peroxidase substrate 2,2′-azine-di-3-ethylbenzthiazoline sulfonate (ABTS) and 2 μL of 3% H2O2 were added. The binding capacity of the mAb was measured as a color development at 405 nm (optical density, OD405). The color development was quantified with a charge-coupled device (CCD)—camera and an image processing system.
(§2) The OD405-values obtained by a CCD-camera was considered as raw data values (“rampo values,” “rampo units,” or “rampo scores”). […] First the CCD-camera made a picture of the card before peroxidase coloring and then again a picture after the peroxidase coloring. […] These values were copied into an excel file and labeled as a raw data file. One follow-up manipulation was allowed. Sometimes a well can contain an air-bubble resulting in a false-positive value. If manual inspection of the cards detect an air-bubble the value are set to 0 for that well.

[2] = target: T2, His-tagged P3028 peptide (PGE73); assay: PEPSCAN ELISA, peptide on card
Procedure: as §1, §2

| Binder | RAMPO Score [2] | further results |
| --- | --- | --- |
| KKLDTFVKLSLFTER [SEQ ID NO 65] | – | binding result [1]: binds |
| KKLDTFFKLSLFTER [SEQ ID NO 66] | – | binding result [1]: binds |
| KKLTFFVKLSLFTER [SEQ ID NO 64] | – | binding result [1]: binds |
| KLSLFTER [SEQ ID NO 53] | – | binding result [1]: binds |
| TFFVKLSLFTER [SEQ ID NO 49] | – | binding result [1]: binds |
| KKLDTFFVKLSLFTER [SEQ ID NO 391] | – | rampo score relative to the P28R control sample [1]: ≥ 98 % of P28R control |
| KKLDTFFVKLSFTER [SEQ ID NO 68] | – | binding result [1]: binds |
| KKLDTFFVKLSLFSER [SEQ ID NO 384] | – | rampo score relative to the P28R control sample [1]: ≥ 98 % of P28R control |
| KKLDTFFVKLSLFTEF [SEQ ID NO 388] | – | rampo score relative to the P28R control sample [1]: ≥ 98 % of P28R control |
| KKLDTFFVKLSLFWER [SEQ ID NO 386] | – | rampo score relative to the P28R control sample [1]: ≥ 98 % of P28R control |
| KKLDTFFVKLSLFTEN [SEQ ID NO 390] | – | rampo score relative to the P28R control sample [1]: ≥ 98 % of P28R control |
| KKLDTFFVKLSLFVER [SEQ ID NO 385] | – | rampo score relative to the P28R control sample [1]: ≥ 98 % of P28R control |
| KKLDTFFVKLSLFTEK [SEQ ID NO 389] | – | rampo score relative to the P28R control sample [1]: ≥ 98 % of P28R control |
| KKLDTFFVKLSLFTET [SEQ ID NO 392] | – | rampo score relative to the P28R control sample [1]: ≥ 98 % of P28R control |
| KKLDTFFVKLSLFTEY [SEQ ID NO 393] | – | rampo score relative to the P28R control sample [1]: ≥ 98 % of P28R control |
| KKLDTFFVKLSLFTDR [SEQ ID NO 387] | – | rampo score relative to the P28R control sample [1]: ≥ 98 % of P28R control |
| KKFFVKLSLFTER [SEQ ID NO 76] | – | binding result [1]: binds |
| KKLDTFFVKLSLFTE [SEQ ID NO 34] | – | binding result [1]: binds |
| LDTFFVKLSLFTER [SEQ ID NO 47] | – | binding result [1]: binds |
| AKLDTFFVKLSLFTER [SEQ ID NO: 268 AKLDTFFVKLSLFTER] | 466 | – |
| KKMDTFFVKLSLFTER [SEQ ID NO: 291 KKMDTFFVKLSLFTER] | 460 | – |
| KKADTFFVKLSLFTER [SEQ ID NO: 282 KKADTFFVKLSLFTER] | 427 | – |
| HKLDTFFVKLSLFTER [SEQ ID NO: 272 HKLDTFFVKLSLFTER] | 428 | – |

| Binder | RAMPO Score [2] | further results |
| --- | --- | --- |
| TKLDTFFVKLSLFTER [SEQ ID NO: 280 TKLDTFFVKLSLFTER] | 493 | – |
| KKLETFFVKLSLFTER [SEQ ID NO: 299 KKLETFFVKLSLFTER] | 417 | – |
| QKLDTFFVKLSLFTER [SEQ ID NO: 278 QKLDTFFVKLSLFTER] | 455 | – |
| KKLVTFFVKLSLFTER [SEQ ID NO: 301 KKLVTFFVKLSLFTER] | 424 | – |
| KKSDTFFVKLSLFTER [SEQ ID NO: 295 KKSDTFFVKLSLFTER] | 393 | – |
| DKLDTFFVKLSLFTER [SEQ ID NO: 269 DKLDTFFVKLSLFTER] | 373 | – |
| GKLDTFFVKLSLFTER [SEQ ID NO: 271 GKLDTFFVKLSLFTER] | 367 | – |
| KKTDTFFVKLSLFTER [SEQ ID NO: 296 KKTDTFFVKLSLFTER] | 451 | – |
| EKLDTFFVKLSLFTER [SEQ ID NO: 270 EKLDTFFVKLSLFTER] | 396 | – |
| KKLDSFFVKLSLFTER [SEQ ID NO: 310 KKLDSFFVKLSLFTER] | 458 | – |
| KKNDTFFVKLSLFTER [SEQ ID NO: 292 KKNDTFFVKLSLFTER] | 374 | – |
| LKLDTFFVKLSLFTER [SEQ ID NO: 274 LKLDTFFVKLSLFTER] | 449 | – |
| KKLDRFFVKLSLFTER [SEQ ID NO: 309 KKLDRFFVKLSLFTER] | 430 | – |
| KKQDTFFVKLSLFTER [SEQ ID NO: 293 KKQDTFFVKLSLFTER] | 473 | – |
| KKKDTFFVKLSLFTER [SEQ ID NO: 290 KKKDTFFVKLSLFTER] | 386 | – |
| VKLDTFFVKLSLFTER [SEQ ID NO: 281 VKLDTFFVKLSLFTER] | 442 | – |
| MKLDTFFVKLSLFTER [SEQ ID NO: 275 MKLDTFFVKLSLFTER] | 457 | – |
| KKLDMFFVKLSLFTER [SEQ ID NO: 305 KKLDMFFVKLSLFTER] | 475 | – |
| KKGDTFFVKLSLFTER [SEQ ID NO: 287 KKGDTFFVKLSLFTER] | 563 | – |
| KKLDNFFVKLSLFTER [SEQ ID NO: 306 KKLDNFFVKLSLFTER] | 436 | – |
| KKEDTFFVKLSLFTER [SEQ ID NO: 285 KKEDTFFVKLSLFTER] | 528 | – |
| KKLDWFFVKLSLFTER [SEQ ID NO: 311 KKLDWFFVKLSLFTER] | 418 | – |
| KKLYTFFVKLSLFTER [SEQ ID NO: 303 KKLYTFFVKLSLFTER] | 422 | – |

| Binder | RAMPO Score [2] | further results |
| --- | --- | --- |
| NKLDTFFVKLSLFTER [SEQ ID NO: 276 NKLDTFFVKLSLFTER] | 445 | – |
| KKVDTFFVKLSLFTER [SEQ ID NO: 297 KKVDTFFVKLSLFTER] | 377 | – |
| IKLDTFFVKLSLFTER [SEQ ID NO: 273 IKLDTFFVKLSLFTER] | 483 | – |
| KKLDCFFVKLSLFTER [SEQ ID NO: 304 KKLDCFFVKLSLFTER] | 449 | – |
| KKIDTFFVKLSLFTER [SEQ ID NO: 289 KKIDTFFVKLSLFTER] | 454 | – |
| PKLDTFFVKLSLFTER [SEQ ID NO: 277 PKLDTFFVKLSLFTER] | 387 | – |
| KKCDTFFVKLSLFTER [SEQ ID NO: 283 KKCDTFFVKLSLFTER] | 432 | – |
| KKFDTFFVKLSLFTER [SEQ ID NO: 286 KKFDTFFVKLSLFTER] | 393 | – |
| KKLWTFFVKLSLFTER [SEQ ID NO: 302 KKLWTFFVKLSLFTER] | 443 | – |
| KKHDTFFVKLSLFTER [SEQ ID NO: 288 KKHDTFFVKLSLFTER] | 477 | – |
| KKLATFFVKLSLFTER [SEQ ID NO: 298 KKLATFFVKLSLFTER] | 494 | – |
| KKLDPFFVKLSLFTER [SEQ ID NO: 307 KKLDPFFVKLSLFTER] | 427 | – |
| RKLDTFFVKLSLFTER [SEQ ID NO: 279 RKLDTFFVKLSLFTER] | 523 | – |
| KKLITFFVKLSLFTER [SEQ ID NO: 300 KKLITFFVKLSLFTER] | 430 | – |
| KKDDTFFVKLSLFTER [SEQ ID NO: 284 KKDDTFFVKLSLFTER] | 492 | – |
| KKRDTFFVKLSLFTER [SEQ ID NO: 294 KKRDTFFVKLSLFTER] | 370 | – |
| KKLDQFFVKLSLFTER [SEQ ID NO: 308 KKLDQFFVKLSLFTER] | 535 | – |
| FFVKLSLFTER [SEQ ID NO 50] | – | binding result [1]: binds |
| FVKLSLFTER [SEQ ID NO 51] | – | binding result [1]: binds |
| VKLSLFTER [SEQ ID NO 52] | – | binding result [1]: binds |
| DTFFVKLSLFTER [SEQ ID NO 48] | – | binding result [1]: binds |
| FVKL | – | binding result [1]: binds |
| KLDTFFVKLSLFTER [SEQ ID NO 46] | – | binding result [1]: binds |
